The target of the experiment is HA ectodomain trimer (UniProt Q289M7 18-528). In words: Octet. On the technique in general: BLI is a label-free optical method that tracks binding on a fibre tip over time.

B1: CR9114 (Fab, V domains shown)
VH: QVQLVQSGAEVKKPGSSVKVSCKSSGGTSNNYAISWVRQAPGQGLDWMGGISPIFGSTAYAQKFQGRVTISADIFSNTAYMELNSLTSEDTAVYFCARHGNYYYYSGMDVWGQGTTVTVSS
VL: SYVLTQPPAVSGTPGQRVTISCSGSDSNIGRRSVNWYQQFPGTAPKLLIYSNDQRPSVVPDRFSGSKSGTSASLAISGLQSEDEAEYYCAAWDDSLKGAVFGGGTQLTVL
For B1, the equilibrium dissociation constant (Kd) (usually the constant that tells how readily two partners part at equilibrium) is under 1 pM.

These data come from US20240285749A1 (published 2024).
